Holding throughout (assay): colorimetric sulfide formation, Michaelis-Menten fit
Substrate in series [1]: N[C@@H](CS)C(=O)O
The series is classed as biochemical, Zygaena filipendulae. Particulars: 6 mM KCN, 20 µM pyridoxal-5'-phosphate, Tris-HCl pH 8.5, 31 °C, 10 min. The text has this: colorimetric sulfide formation, Michaelis-Menten fit on ZfBSAS2

Substrate in series [2]: N[C@@H](CS)C(=O)O
The format is biochemical, Gonepteryx rhamni. Particulars: 6 mM KCN, 20 µM pyridoxal-5'-phosphate, Tris-HCl pH 8.5, 31 °C, 30 min. The source says:
colorimetric sulfide formation, Michaelis-Menten fit on GrBSAS2

Substrate in series [3]: N[C@@H](CS)C(=O)O
The series is classed as biochemical, Colias croceus. Particulars: 6 mM KCN, 20 µM pyridoxal-5'-phosphate, Tris-HCl pH 8.5, 31 °C, 10 min. The source says:
colorimetric sulfide formation, Michaelis-Menten fit on CcBSAS3

Substrate in series [4]: N[C@@H](CS)C(=O)O
The series is classed as biochemical, Anthocharis cardamines. Particulars: 6 mM KCN, 20 µM pyridoxal-5'-phosphate, Tris-HCl pH 8.5, 31 °C, 10 min. The source says: colorimetric sulfide formation, Michaelis-Menten fit on AcaBSAS1

Substrate in series [5]: N[C@@H](CS)C(=O)O
The format is biochemical, Anthocharis cardamines. Particulars: 6 mM KCN, 20 µM pyridoxal-5'-phosphate, Tris-HCl pH 8.5, 31 °C, 10 min. The source says: colorimetric sulfide formation, Michaelis-Menten fit on AcaBSAS3
This is another data set of the same source.

Substrate in series [6]: N[C@@H](CS)C(=O)O
The series is classed as biochemical, Spodoptera littoralis. Particulars: 6 mM KCN, 20 µM pyridoxal-5'-phosphate, Tris-HCl pH 8.5, 31 °C, 10 min. The source says: colorimetric sulfide formation, Michaelis-Menten fit on SlBSAS2a

Substrate in series [7]: N[C@@H](CS)C(=O)O
The series is classed as biochemical, Colias croceus. Particulars: 6 mM KCN, 20 µM pyridoxal-5'-phosphate, Tris-HCl pH 8.5, 31 °C, 10 min. The source says: colorimetric sulfide formation, Michaelis-Menten fit on CcBSAS2
The source holds these as a separate data set.

Substrate in series [8]: N[C@@H](CS)C(=O)O
The series is classed as biochemical, Aporia crataegi. Particulars: 6 mM KCN, 20 µM pyridoxal-5'-phosphate, Tris-HCl pH 8.5, 31 °C, 10 min. The text has this:
colorimetric sulfide formation, Michaelis-Menten fit on AcrBSAS1

Substrate in series [9]: N[C@@H](CS)C(=O)O
The series is classed as biochemical, Aporia crataegi. Particulars: 6 mM KCN, 20 µM pyridoxal-5'-phosphate, Tris-HCl pH 8.5, 31 °C, 10 min. The source says:
colorimetric sulfide formation, Michaelis-Menten fit on AcrBSAS2
The source holds these as a separate data set.

Substrate in series [10]: N[C@@H](CS)C(=O)O
The series is classed as biochemical, Plutella xylostella. Particulars: 6 mM KCN, 20 µM pyridoxal-5'-phosphate, Tris-HCl pH 8.5, 31 °C, 10 min. The text has this:
colorimetric sulfide formation, Michaelis-Menten fit on PxBSAS2

Substrate in series [11]: N[C@@H](CS)C(=O)O
The format is biochemical, Spodoptera littoralis. Particulars: 6 mM KCN, 20 µM pyridoxal-5'-phosphate, Tris-HCl pH 8.5, 31 °C, 10 min. The text has this: colorimetric sulfide formation, Michaelis-Menten fit on SlBSAS2b
The source holds these as a separate data set.

Substrate in series [12]: N[C@@H](CS)C(=O)O
The format is biochemical, Anthocharis cardamines. Particulars: 6 mM KCN, 20 µM pyridoxal-5'-phosphate, Tris-HCl pH 8.5, 31 °C, 10 min. The source says:
colorimetric sulfide formation, Michaelis-Menten fit on AcaBSAS2
This is another data set of the same source.

As a reminder, the Vmax is the top rate of the reaction or transport when substrate is in excess.

B1: ZfBSAS2 (Zygaena filipendulae) (protein)
chain: MSPPVLQHHDEIKSSALELIGNTPIVALDRLYTGPGRILAKCEFMNPGASIKCRSSLYMIQKALDEKLLKPGEPVLEVTSGNQGCGLAVVCAVLQHPLTLTMSKGNSAQRAVHMAALGAKCIRVPQVEGTYGNVTLADVKAAEAEGLRIVEKTGAYYVNQFNNEANTLAHYETTGPEIWRQTGGRVDAFVATVGTAGTFTGTSKYLKEKNPELKAYVVEPQGSEPIKQLPITKPLHVLQGSGYGCIPNLFNYSTMNDTISVTDEESKHYKKLLGTKEGLYVGYTSGANVAAAVKLLESGTLPDDAWVVTTLNDSGLKYSPTPDEIELSD
notes: N-terminal Strep-tag, E. coli BL21(DE3) pLysS; Strep-Tactin purified
As for B1, in [1], the Km is reported as 0.74 (±0.04) mM and the maximal velocity (Vmax) stood at 2.99 µmol/min/mg.

B2: GrBSAS2 (Gonepteryx rhamni) (protein)
chain: MAKVNGIHSEIKESALDLIGNTPIVALDRLHPGPGRILAKCEFMNPGASIKCRSSLHMIQVAREKGLLKPGQPVLEVTSGNQGCGLAVVCSVMGHPLTVTMSKGNSVQRAIHMEALGAKCVRVPQVEGTYGNVTLADVKAAEQEGLRIAEETGAYYVNQFSNDDNANSHYCTTGPEIWRQTGHRVDAFVATVGTAGTFAGSSAYLKEKNPKIQCYVVEPEGSQPIRGCPITKPLHLLQGSGYGCIPNSFKFDTMDGTLSVTDEEATRYKNLIGEKEGLYVGYTSGANIAAAVKLLNSGKLPEDAWVVTLLNDSGLKYTPVPESLT
notes: as for B1
For B2, in [2], the Km was 0.37 (±0.00) mM and the Vmax amounted to 0.24 µmol/min/mg.

B3: CcBSAS3 (Colias croceus) (protein)
chain: MTSSTNFPTDIKSSALELIGNTPLVALDRLHPGPGRILAKCEFMNPGASIKCRSSLHMIQKARERGDLKPGDPVIEVTSGNQGCGLAVVCAVLGHPLTLTMSKGNSVQRAIHMEALGAKCIRYPQVEGTYGNITYADVSIPIEAAVTLAEETGAYFVQQLCNEDNSAAHYEATGPEIWRQTGHRVDGFVTAVGTSGTFSGVSKFLKEQNPEILCCVVEPAGSEPLKGCPIVKPKHLLQGSSYGIVPNLFKPEFMDESISVTDEETEHYKDLIGKKEGLYVGYTSGANVAAAVKLLKSGKLPKDAWVVTVLCDSGLKYTPVPESLIN
notes: as for B1
Take B3: in series [3], the Km is given as 1.50 (±0.08) mM and the maximum rate (Vmax) is 0.43 µmol/min/mg.

B4: AcaBSAS1 (Anthocharis cardamines) (protein)
chain: MGQACEKQTDIRASAIELIGNTPLVALDRLHPGPGRILAKCEFMNPGGSIKCRASLHMIQKARLRGTLKPGDPVVEATSGNQGCGLAVACAVLGHPLTLTMSKGNTVQRAIHMEALGAKCIRVPQVEGTYGNVTNADLMAAKDEAISFHEKTGAFFVKQFVNEDNVEAHYTTTGPEIWYQTGNRVDAFVTAVGTSGTFMGVSKYLKKQNPKIRCYVVEPEGCEPIKGKPITKASNTLQGSSYGVIPDLFKFEYMNETITVTDEEAEEYRDLIGSKEGLYVGYTSGANVCAAVKLLKSGKLPKNAWVVTILFDTGLKYTPVPESLM
notes: as for B1
Regarding B4, in [4], the Km is recorded as 0.41 (±0.01) mM and the maximal velocity (Vmax) turned out to be 23.8 µmol/min/mg.

B5: AcaBSAS3 (Anthocharis cardamines) (protein)
chain: MSDSNGIPNEIKASALDLIGNTPLVALDRLHPGPGRILAKCEFMNPGGSIKCRSSLHMIQKARERGELKPGGSVVEVTSGNQGCGLAVVCAVLGHDLTVTMSKGNSIQRVIHMEALGAKCIRYPLVQGTYGNVTFADVEEALEAATNMSEESGAFFVKQFCNLENEEAHYVTTGPEIWRQTGHRVDAFVTAVGTSGTFSGVSTFLKEQNPDVKCFVVEPEGSQPLKGCPITKPLHLLQGASYGIIPDLFKPDLMEDSISVTDKEAVHYKDLIGTKEGLFVGYTSGANVAAAVKLLNSGKLPKDAWVVTTLCDTGLKYTPVPESLIE
notes: as for B1
Turning to B5, in [5], the Km is 0.96 (±0.04) mM and the Vmax turned out to be 1.41 µmol/min/mg.

B6: SlBSAS2a (Spodoptera littoralis) (protein)
chain: MAPIEKDEQPKYLEGDIKASALELIGNTPLVALDRLYTGPGRILAKCEFMNPGASIKCRSSLSMINRAIASGELKPGEPVVEITSGNQGCGLAVVCAVLGHPLTLAMSKGSSAQRALHMEALGAKCVRVDQVEGTYGNVTYADVKAVEEVGMKIVEEQNAYFVNQFHNEANADAHYKSTGPEIWKQTGHHVDAFVATVGTSGTFAGTSRYLKEQNPDIKTYVVEPAGAEAIAGCPITKPLHLLQGSGYGWIPDLFKFEHMDGTLSVTDEEAVKYMKLVGEKEGLYVGYTSGANVAAAVKLLESGLIPEDAWVVTLLNDTGLKYTPVPEELFK
notes: as for B1
As to B6, in series [6], the Km is on record as 0.60 (±0.01) mM and the Vmax was 1.44 µmol/min/mg.

B7: CcBSAS2 (Colias croceus) (protein)
chain: MAKVNGIQNEIKESALDLIGNTPIVALDRLHPGPGRILAKCEFMNPGASIKCRSSLHMINKAIEKGLLKPGQSVLEVTSGNQGCGLAVVCSVMGHPLTVTMSMGNSAQRAIHMEALGAKCVRVPQVEGTYGNVTLADVKAAEKEGLRLAEEIGAYYVNQFNNEDNANSHYCTTGPEIWRQTGHRVDAFVATVGTAGTFTGSSRFLKEKNPNIQCYVVEPEGSQPIRGCAITKPLHLLQGSGYGCVPNLFNFETMDGTLSVTDEEASKYMKLIGEKEGLYVGYTSGANVAAAVKLLNSGTLPEDAWVVTLLNDSGLKYTPVPESLSGNSNNANSD
notes: as for B1
On to B7, for which, in series [7], the Km is 0.75 (±0.06) mM and the Vmax was found to be 1.04 µmol/min/mg.

B8: AcrBSAS1 (Aporia crataegi) (protein)
chain: MGQTCEKQTDIRSSALELIGNTPLVALDRLYPGPGRLLAKCESMNPGGSIKDRASYHMIKKARLRGELKPGDPVIEATSGNQGCGLAVSCAVLGHPLTLTMSKGNTVQRAIHMEALGATCVRVPQVEGTYGHVTNADLMVVKKEAIVLQQKTGAFFVNQFLNEDNVEAHYISTGPEIWHQTAGRVNAFVTAVGTSGTFMGVSRFLKKQNPKIQCYVVEPEGCEPIKGKPIIKASNTLQGSSYGLVPDLFKYEVMSETITVTDEEAQEYMHLIGKKEGLYVGYTSGANVCAAVKLLKSGKLSKKAWVVTILFDTGLKYTPVPSLM
notes: as for B1
Regarding B8, in series [8], the Km is on record as 0.26 (±0.00) mM and the maximal velocity (Vmax) was 14 µmol/min/mg.

B9: AcrBSAS2 (Aporia crataegi) (protein)
chain: MAKVNGIKNEIKTSALELIGETPLLALDRLHPGPGRILVKCEFMNPGASIKCRSSLHMIQEARAKGLLKPGQPVLEVTSGNQGCGLAIVCAIYGHPLTVTMSKGNSLQRAIHMEALGAKCVRVPQVEGTYGNVTVNDVNAAEEEGLKIVKETGAYYVNQFNNEDNANSHYLTTGPEIWRQSGHNVDAFVATVGTAGTFAGTSRYLKEKNPNIKCFVVEPEGSQPIKGCPITKPLHLLQGSGYGCIPNLFNFDTMDGTLSVTDEEAVEYKNLIGEKEGLFVGFTSGANVAAAVKLLKSGLIPENSCLVTILNDTGLKYTPVAESLI
notes: as for B1
Turning to B9, in series [9], the Km was 0.58 (±0.04) mM and the maximum rate (Vmax) worked out at 2.09 µmol/min/mg.

B10: PxBSAS2 (Plutella xylostella) (protein)
chain: MSTIDGVIDGVHNEVKASALELIGNTPLVALDRLHPGPGRLLVKCEFMNPGASLKDRSSLHMIQDARAEGRLAPGAPVVEITSGNQGCGLAVVCAVLGHPLTLTMSAGNSVQRALHMEALGARCVRVPQVEGRYGSVTFADVEVCEKEGHKIVEETGAFLVNQFHNPSNSLSHYKMMGPEIWRQTGGRVDGFVATMGTGGVFTGTSRFLKEQNKDVKTYVVEPAGAEVIKGDAITKPLHLLQGSGYGYVPSLFDRSLLDGTLAVTDEETLEYRRLIGEKEGLFVGYTSAANVAAAARLLRSGQLPPDAWVVTILCDTGLKYC
notes: as for B1
With B10, in [10], the Km was 0.52 (±0.04) mM and the Vmax worked out at 3.72 µmol/min/mg.

B11: SlBSAS2b (Spodoptera littoralis) (protein)
chain: MAPVEKNLKDEQPKYLKGDIKASALELIGNTPMVALDRLYSGPGRILAKCEFMNPGASIKCRSSLSMINRAIASGELKPGEPVVEITSGNQGCGLAVVCAVLGHPLTLAMSKGNSVQRALHMEALGAKVVRVDQVKGTYGNVTYADVEVVREVCDKLVKDQNAYFVNQFSNEANADAHYESTGPEIWQQTGHHVDAFVAAVGTAGTFMGTSRYLKEQNPNIKAYVVEPAGAEAIAGCEVTKPLHLLQGSGYGLIPDLLKYEFMDGSLSVTDEEAVKYMKLIGEKEGLYVGYTSGANVAAAIKLLESGLVPEDAWVVTVLADTGLKYTPVPEELMK
notes: as for B1
Consider B11, for which, in series [11], the Km was 1.07 (±0.03) mM and the Vmax is 11.6 µmol/min/mg.

B12: AcaBSAS2 (Anthocharis cardamines) (protein)
chain: MTKENGIPNEIKSSALDLIGETPLLALDRLHPGPGRILVKCEFNNPGASIKCRSAMHMIQEARAKGELKPGQPVLEVTSGNQGVGLAIVCAIYGHPLTATMSKGNSVQRAVHMEALGAKCIRVPQVEGTYGNVTINDVKAAEEEGLKIAKETGAYYVNQFNNDDNANSHYLTTGPEIWRQSGHHVDAFIATVGTAGTFAGTSRYLKEKNPDIQCYVVEPEGSQPIRGCEITKPLHLLQGSGYGCIPNLFKFETMDGTLSVTDEEAVRYKNLVGEKEGLYVGYTSGANVAAAVKLLKSGKLPEDAWVVTPLNDSGLKYTPVPDSLT
notes: as for B1
Turning to B12, in series [12], the Km is on record as 0.44 (±0.01) mM and the Vmax worked out at 1.76 µmol/min/mg.

The values above are taken from article PMC5492076, “β-Cyanoalanine Synthases and Their Possible Role in Pierid Host Plant Adaptation” (Insects, 2017).
